What was measured:
[1] = target: human intestinal receptor protein cubilin (Homo sapiens, UniProt O60494); experiment: BIAcore 2000 binding of intrinsic factor to immobilized cubilin; details: for binding to cubilin, holo-form: intrinsic factor saturated with vitamin B12 (holo-form); for binding to cubilin, apo-form: intrinsic factor unsaturated with vitamin B12 (apo-form)
Protocol: The binding between intrinsic factor and its receptor cubilin was analysed employing a BIAcore 2000 instrument (Biacore AB, Uppsala, Sweden). An increase in Resp. Diff. (Y axis) indicates binding between intrinsic factor and cubilin. At time approximately 100 a solution with intrinsic factor is added to the immobilized cubilin. Intrinsic factor was isolated from transgenic plants, human gastric juice and hog stomach. Preparations of vitamin B 12 saturated and vitamin B12 unsaturated intrinsic factor were used. At time approximately 600 intrinsic factor is removed from the solution and the dissociation between cubilin and intrinsic factor is followed.

[2] = Competitive binding of 57Co-labelled cobalamin versus unlabelled cobalamin; details: 57Co-cobalamin mixed with increasing non-radioactive cobalamin, bound fraction by gamma counter
Protocol: (§1) Equal amounts of the respective proteins were added to a mixture containing a fixed amount of cobalt (57Co) labelled cobalamin mixed with increasing amounts of non-radioactive cobalamin or cobinamide (X axis). Free and bound ligand were separated and the amount of 57Co attached to the protein was measured in a gamma counter. The 57Co fraction bound relative to the amount of 57Co bound in the absence of unlabeled cobalamin or cobinamide was calculated (Y axis).
as §1, with “Both recombinant proteins were extracted form transgenic Arabidopsis thaliana plants. Equal” for “Equal”, “(57Co) labeled” for “(57Co) labelled”, “of nonradioactive” for “of non-radioactive”, “ligand was” for “ligand were”, “of unlabelled” for “of unlabeled”
(§2) One kilogram of three week old IF-plants was homogenization with 2 liters of phosphate buffer and clarified by centrifugation. This extract contained 100 mg recombinant human IF with CBC. This IF had specificity for cobalamin binding whereas the analog cobinamid was not bound by the IF as tested by the method described by (15).

[3] = Competitive binding of 57Co-labelled cobalamin versus unlabelled cobinamide; details: 57Co-cobalamin mixed with increasing non-radioactive cobinamide; bound fraction by gamma counter
Protocol: as §1
as §1, with “Both recombinant proteins were extracted form transgenic Arabidopsis thaliana plants. Equal” for “Equal”, “(57Co) labeled” for “(57Co) labelled”, “of nonradioactive” for “of non-radioactive”, “ligand was” for “ligand were”, “of unlabelled” for “of unlabeled”
as §2

[4] = listed as native intrinsic factor
[5] = listed as recombinant intrinsic factor

Sequence of human intestinal receptor protein cubilin (O60494 36-3623): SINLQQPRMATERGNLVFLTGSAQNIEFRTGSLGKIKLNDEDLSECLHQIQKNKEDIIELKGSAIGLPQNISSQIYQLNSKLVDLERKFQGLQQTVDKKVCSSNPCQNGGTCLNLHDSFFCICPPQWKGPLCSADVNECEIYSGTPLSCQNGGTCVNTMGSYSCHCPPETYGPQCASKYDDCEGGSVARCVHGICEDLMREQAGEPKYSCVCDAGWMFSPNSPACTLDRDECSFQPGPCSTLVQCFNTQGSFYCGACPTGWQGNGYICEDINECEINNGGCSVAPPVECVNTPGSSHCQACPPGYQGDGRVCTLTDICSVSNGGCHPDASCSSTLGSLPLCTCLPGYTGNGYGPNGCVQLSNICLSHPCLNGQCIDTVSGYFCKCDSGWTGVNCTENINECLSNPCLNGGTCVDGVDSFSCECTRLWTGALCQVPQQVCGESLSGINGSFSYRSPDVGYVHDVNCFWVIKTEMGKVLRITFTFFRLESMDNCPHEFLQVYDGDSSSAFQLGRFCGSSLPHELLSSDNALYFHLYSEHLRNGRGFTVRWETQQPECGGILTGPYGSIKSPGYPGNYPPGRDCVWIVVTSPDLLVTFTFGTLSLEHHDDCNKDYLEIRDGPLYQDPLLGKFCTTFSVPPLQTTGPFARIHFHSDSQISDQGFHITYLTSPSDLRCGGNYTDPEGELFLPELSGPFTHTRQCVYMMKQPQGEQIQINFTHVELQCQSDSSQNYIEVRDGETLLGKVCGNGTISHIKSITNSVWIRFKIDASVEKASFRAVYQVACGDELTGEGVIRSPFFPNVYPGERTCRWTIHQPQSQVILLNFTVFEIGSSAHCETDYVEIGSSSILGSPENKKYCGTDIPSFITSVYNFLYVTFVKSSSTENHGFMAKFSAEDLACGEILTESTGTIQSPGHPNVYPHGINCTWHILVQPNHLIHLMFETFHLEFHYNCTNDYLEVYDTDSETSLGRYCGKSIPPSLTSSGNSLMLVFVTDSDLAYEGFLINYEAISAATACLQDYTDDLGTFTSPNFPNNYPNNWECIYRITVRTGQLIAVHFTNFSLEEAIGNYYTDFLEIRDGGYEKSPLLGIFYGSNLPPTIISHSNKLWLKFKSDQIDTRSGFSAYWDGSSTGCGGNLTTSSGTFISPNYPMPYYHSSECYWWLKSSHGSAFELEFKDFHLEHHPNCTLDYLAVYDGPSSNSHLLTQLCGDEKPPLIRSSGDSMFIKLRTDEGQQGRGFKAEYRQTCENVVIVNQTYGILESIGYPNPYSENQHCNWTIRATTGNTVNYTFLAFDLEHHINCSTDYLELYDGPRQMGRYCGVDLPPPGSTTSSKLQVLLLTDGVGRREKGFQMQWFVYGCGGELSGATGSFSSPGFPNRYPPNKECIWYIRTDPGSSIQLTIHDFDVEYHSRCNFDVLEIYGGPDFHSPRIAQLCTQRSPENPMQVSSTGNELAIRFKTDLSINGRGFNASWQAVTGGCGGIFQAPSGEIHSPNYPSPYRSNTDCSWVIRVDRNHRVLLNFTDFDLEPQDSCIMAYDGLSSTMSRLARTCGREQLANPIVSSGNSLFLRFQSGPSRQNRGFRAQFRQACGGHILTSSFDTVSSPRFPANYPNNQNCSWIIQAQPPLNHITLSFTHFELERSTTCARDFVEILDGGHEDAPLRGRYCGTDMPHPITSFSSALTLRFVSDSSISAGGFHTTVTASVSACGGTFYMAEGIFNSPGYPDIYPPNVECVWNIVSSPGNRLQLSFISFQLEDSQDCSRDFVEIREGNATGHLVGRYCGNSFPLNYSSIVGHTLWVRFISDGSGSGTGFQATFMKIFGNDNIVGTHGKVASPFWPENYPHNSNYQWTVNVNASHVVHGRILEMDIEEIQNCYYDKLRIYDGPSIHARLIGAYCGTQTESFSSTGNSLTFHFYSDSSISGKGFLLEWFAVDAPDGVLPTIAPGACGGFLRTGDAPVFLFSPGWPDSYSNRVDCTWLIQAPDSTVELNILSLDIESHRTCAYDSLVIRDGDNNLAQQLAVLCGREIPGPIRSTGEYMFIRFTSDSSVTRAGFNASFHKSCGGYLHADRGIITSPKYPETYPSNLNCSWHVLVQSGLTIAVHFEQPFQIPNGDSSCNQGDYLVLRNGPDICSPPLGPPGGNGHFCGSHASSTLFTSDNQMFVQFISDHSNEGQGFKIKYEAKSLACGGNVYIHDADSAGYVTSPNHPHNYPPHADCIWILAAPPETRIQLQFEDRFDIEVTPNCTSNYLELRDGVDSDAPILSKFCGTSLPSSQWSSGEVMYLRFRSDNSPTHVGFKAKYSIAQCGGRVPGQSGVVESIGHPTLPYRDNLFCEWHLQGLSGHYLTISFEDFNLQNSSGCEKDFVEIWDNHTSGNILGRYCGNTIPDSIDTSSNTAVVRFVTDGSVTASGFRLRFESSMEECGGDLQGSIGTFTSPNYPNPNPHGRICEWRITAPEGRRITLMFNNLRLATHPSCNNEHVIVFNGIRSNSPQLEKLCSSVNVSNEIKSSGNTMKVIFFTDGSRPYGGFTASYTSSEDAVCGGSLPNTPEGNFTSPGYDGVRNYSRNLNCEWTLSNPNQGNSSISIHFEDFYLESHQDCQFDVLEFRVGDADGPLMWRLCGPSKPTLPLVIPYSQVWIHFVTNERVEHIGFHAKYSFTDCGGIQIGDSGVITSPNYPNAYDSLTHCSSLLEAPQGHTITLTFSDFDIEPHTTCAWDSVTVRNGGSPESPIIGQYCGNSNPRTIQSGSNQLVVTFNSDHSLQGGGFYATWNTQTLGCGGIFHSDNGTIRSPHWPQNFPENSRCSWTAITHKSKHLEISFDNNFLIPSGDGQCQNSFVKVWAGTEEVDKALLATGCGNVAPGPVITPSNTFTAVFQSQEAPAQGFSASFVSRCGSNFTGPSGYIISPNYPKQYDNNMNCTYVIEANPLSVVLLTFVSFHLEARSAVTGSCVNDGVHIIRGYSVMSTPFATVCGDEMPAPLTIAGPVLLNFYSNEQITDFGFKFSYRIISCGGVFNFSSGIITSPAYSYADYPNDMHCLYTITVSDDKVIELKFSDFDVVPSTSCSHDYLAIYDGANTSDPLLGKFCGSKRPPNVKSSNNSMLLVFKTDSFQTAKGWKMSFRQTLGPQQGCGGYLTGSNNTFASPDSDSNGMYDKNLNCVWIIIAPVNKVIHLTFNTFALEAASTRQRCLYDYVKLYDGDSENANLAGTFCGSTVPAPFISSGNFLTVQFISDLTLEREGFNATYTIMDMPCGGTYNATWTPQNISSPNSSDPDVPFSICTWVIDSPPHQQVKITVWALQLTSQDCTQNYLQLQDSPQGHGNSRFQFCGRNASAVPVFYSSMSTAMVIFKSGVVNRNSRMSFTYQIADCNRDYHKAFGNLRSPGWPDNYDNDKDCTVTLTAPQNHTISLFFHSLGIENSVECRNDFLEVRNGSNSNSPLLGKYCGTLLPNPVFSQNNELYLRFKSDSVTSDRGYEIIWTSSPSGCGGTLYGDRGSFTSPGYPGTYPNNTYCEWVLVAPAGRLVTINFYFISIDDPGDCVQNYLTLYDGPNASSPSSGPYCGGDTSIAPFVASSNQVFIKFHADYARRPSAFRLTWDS
Sequence of human intestinal receptor protein cubilin (P27352 19-417 partner): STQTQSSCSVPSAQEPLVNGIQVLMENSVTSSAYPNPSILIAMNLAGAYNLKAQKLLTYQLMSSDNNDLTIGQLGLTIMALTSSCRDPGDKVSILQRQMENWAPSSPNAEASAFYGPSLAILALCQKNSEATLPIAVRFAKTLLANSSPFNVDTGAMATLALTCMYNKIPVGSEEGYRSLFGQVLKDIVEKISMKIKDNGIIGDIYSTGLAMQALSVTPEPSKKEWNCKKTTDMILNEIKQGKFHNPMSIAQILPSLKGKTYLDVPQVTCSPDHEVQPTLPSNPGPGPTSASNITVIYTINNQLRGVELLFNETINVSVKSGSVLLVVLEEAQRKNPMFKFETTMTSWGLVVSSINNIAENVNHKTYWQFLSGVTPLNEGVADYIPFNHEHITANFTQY

Molecule | binding to cubilin, holo-form ([1]; listed as human gastric IF) | binding to cubilin, holo-form [1, 4] | binding to cubilin, apo-form ([1]; listed as human gastric IF) | binding to cubilin, apo-form [1, 4] | ability to bind cobalamin [2] | ability to bind cobalamin ([2]; listed as native IF) | ability to bind cobinamid [3] | binding to cubilin, holo-form [1] | binding to cubilin, holo-form [1, 5] | binding to cubilin, apo-form [1] | binding to cubilin, apo-form [1, 5] | ability to bind cobalamin ([2]; listed as recombinant IF) | ability to bind cobalamin ([2]; listed as recombinant human intrinsic factor) | ability to bind cobalamin ([2]; listed as recombinant human transcobalamin)
native human gastric IF: Native intrinsic factor present in / isolated from human gastric juice, used for comparison [reference compound] | bind to the cubulin receptor | binds to cubilin | only when in holo-form | only when saturated with vitamin B12 | specificity for binding Cbl | specificity for binding cobalamin | not cobinamid |  |  |  |  |  |  | 
rhIF from plants: Recombinant human intrinsic factor extracted from transgenic Arabidopsis thaliana plants (mature sequence SEQ ID NO:4) |  |  |  |  | specificity for binding Cbl |  | not cobinamid | binds | binds to cubilin | does not bind | only when saturated with vitamin B12 | specificity for binding cobalamin | bind cobalamin | 
rhTC: Recombinant human transcobalamin extracted from transgenic Arabidopsis thaliana plants (mature sequence SEQ ID NO:11) (protein, plant-expressed; homo sapiens) EMCEIPEMDSHLVEKLGQHLLPWMDRLSLEHLNPSIYVGLRLSSLQAGTKEDLYLHSLKLGYQQCLLGSAFSEDDGDCQGKPSMGQLALYLLALRANCEFVRGHKGDRLVSQLKWFLEDEKRAIGHDHKGHPHTSYYQYGLGILALCLHQKRVHDSVVDKLLYAVEPFHQGHHSVDTAAMAGLAFTCLKRSNFNPGRRQRITMAIRTVREEILKAQTPEGHFGNVYSTPLALQFLMTSPMPGAELGTACLKARVALLASLQDGAFQNALMISQLLPVLNHKTYIDLIFPDCLAPRVMLEPAAETIPQTQEIISVTLQVLSLLPPYRQSISVLAGSTVEDVLKKAHELGGFTYETQASLSGPYLTSVMGKAAGEREFWQLLRDPNTPLLQGIADYRPKDGETIELRLVSW |  |  |  |  | binds to Cbl |  | not cobinamid |  |  |  |  |  |  | bind cobalamin

Source: US9751918B2, “Transgenic plants expressing cobalamin binding proteins” (XERAGENX LLC, priority 2001, dated 2017)
